Test results taken from patent US20150344570A1 (published 2015).

B1: GpH7-A5/GpH7-B3 variant D265_01G/GpL16-k0 (antibody, human IgG1, kappa)
heavy 1: not shown
heavy 2: not shown
light: DIVMTQSPLSLPVTPGEPASISCQASESLVHSNRNTYLHWYLQKPGQSPQLLIYKVSNRFSGVPDRFSGSGSGTDFTLKISRVEAEDVGVYYCSQNTHVPPTFGQGTKVEIERTVAAPSVFIFPPSDEQLKSGTASVVCLLNNFYPREAKVQWKVDNALQSGNSQESVTEQDSKDSTYSLSSTLTLSKADYEKHKVYACEVTHQGLSSPVTKSFNRGEC
notes: Heterodimerized anti-glypican-3 IgG1; the mutation is in the GpH7-B3 chain only; also called He Ab
B2: GpH7-A5/GpH7-B3 variant P238_04F/GpL16-k0 (antibody, human IgG1, kappa)
heavy 1: not shown
heavy 2: not shown
light: B1 light
notes: as for B1
B3: GpH7-A5/GpH7-B3 variant P238_06M/GpL16-k0 (antibody, human IgG1, kappa)
heavy 1: not shown
heavy 2: not shown
light: B1 light
notes: as for B1
B4: GpH7-A5/GpH7-B3 variant P238_07I/GpL16-k0 (antibody, human IgG1, kappa)
heavy 1: not shown
heavy 2: not shown
light: B1 light
notes: as for B1
B5: GpH7-A5/GpH7-B3 variant P238_08L/GpL16-k0 (antibody, human IgG1, kappa)
heavy 1: not shown
heavy 2: not shown
light: B1 light
notes: as for B1
B6: GpH7-A5/GpH7-B3 variant P238_09D/GpL16-k0 (antibody, human IgG1, kappa)
heavy 1: not shown
heavy 2: not shown
light: B1 light
notes: as for B1
B7: GpH7-A5/GpH7-B3 variant P238_10E/GpL16-k0 (antibody, human IgG1, kappa)
heavy 1: not shown
heavy 2: not shown
light: B1 light
notes: as for B1
B8: GpH7-A5/GpH7-B3 variant P238_11K/GpL16-k0 (antibody, human IgG1, kappa)
heavy 1: not shown
heavy 2: not shown
light: B1 light
notes: as for B1
B9: GpH7-A5/GpH7-B3 variant P238_12R/GpL16-k0 (antibody, human IgG1, kappa)
heavy 1: not shown
heavy 2: not shown
light: B1 light
notes: as for B1
B10: GpH7-A5/GpH7-B3 variant P238_13S/GpL16-k0 (antibody, human IgG1, kappa)
heavy 1: not shown
heavy 2: not shown
light: B1 light
notes: as for B1
B11: GpH7-A5/GpH7-B3 variant P238_14T/GpL16-k0 (antibody, human IgG1, kappa)
heavy 1: not shown
heavy 2: not shown
light: B1 light
notes: as for B1
B12: GpH7-A5/GpH7-B3 variant P238_15Y/GpL16-k0 (antibody, human IgG1, kappa)
heavy 1: not shown
heavy 2: not shown
light: B1 light
notes: as for B1
B13: GpH7-A5/GpH7-B3 variant P238_16H/GpL16-k0 (antibody, human IgG1, kappa)
heavy 1: not shown
heavy 2: not shown
light: B1 light
notes: as for B1
B14: GpH7-A5/GpH7-B3 variant P238_18N/GpL16-k0 (antibody, human IgG1, kappa)
heavy 1: not shown
heavy 2: not shown
light: B1 light
notes: as for B1
B15: GpH7-A5/GpH7-B3 variant P238_19Q/GpL16-k0 (antibody, human IgG1, kappa)
heavy 1: not shown
heavy 2: not shown
light: B1 light
notes: as for B1
B16: GpH7-A5/GpH7-B3 variant P238_20W/GpL16-k0 (antibody, human IgG1, kappa)
heavy 1: not shown
heavy 2: not shown
light: B1 light
notes: as for B1
B17: GpH7-A5/GpH7-B3 variant S239_01G/GpL16-k0 (antibody, human IgG1, kappa)
heavy 1: not shown
heavy 2: not shown
light: B1 light
notes: Heterodimerized anti-glypican-3 IgG1; also called He Ab
B18: GpH7-A5/GpH7-B3 variant S239_03V/GpL16-k0 (antibody, human IgG1, kappa)
heavy 1: not shown
heavy 2: not shown
light: B1 light
notes: as for B1

Biological target: T1, FcγRIIIa (human, UniProt P08637 17-208)
T1 construct: extracellular domain; Soluble extracellular domain with a C-terminal His tag; also called FcgRIIIa; 3a; not shown: His tag attached to the C terminus
T1 sequence (P08637 17-208): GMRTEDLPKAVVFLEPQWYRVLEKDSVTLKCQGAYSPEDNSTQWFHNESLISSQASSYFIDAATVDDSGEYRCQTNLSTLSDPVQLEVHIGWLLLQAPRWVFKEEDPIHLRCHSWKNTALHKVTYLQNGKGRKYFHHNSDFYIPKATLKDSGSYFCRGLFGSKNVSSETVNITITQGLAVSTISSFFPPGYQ
Assay: SPR; He/Con_3a (FcγRIIIa) divided by He/Con_2b (FcγRIIb)

Row | Binder | He_3a/2b (IIIa/IIb) [ratio]
1 | B1 | 0.28
2 | B2 | 0.15
3 | B3 | 0.18
4 | B4 | 0.35
5 | B5 | 0.37
6 | B6 | 0.48
7 | B7 | 0.45
8 | B8 | 0.57
9 | B9 | 0.24
10 | B10 | 0.64
11 | B11 | 0.55
12 | B12 | 0.3
13 | B13 | 0.27
14 | B14 | 0.55
15 | B15 | 0.51
16 | B16 | 0.4
17 | B17 | 0.53
18 | B18 | 0.71

Biological target: T2, FcγRIIb (human, UniProt P31994 43-217)
T2 construct: extracellular domain; Soluble extracellular domain with a C-terminal His tag, expressed in FreeStyle293 cells; also called FcgRIIb; 2b; not shown: His tag attached to the C terminus
T2 sequence (looked up): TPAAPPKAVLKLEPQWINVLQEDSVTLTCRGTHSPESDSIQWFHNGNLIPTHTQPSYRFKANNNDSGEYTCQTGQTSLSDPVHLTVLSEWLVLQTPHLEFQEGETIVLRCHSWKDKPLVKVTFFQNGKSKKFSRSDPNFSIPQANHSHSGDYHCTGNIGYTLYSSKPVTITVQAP
Assay: SPR (Biacore), antibody captured on chip, FcγR as analyte

Row | Binder | He/Con_2b
19 | B1 | 16.1 relative binding, GpH7-A5/GpH7-B3/GpL16-k0 = 100
20 | B2 | 312 relative binding, GpH7-A5/GpH7-B3/GpL16-k0 = 100
21 | B3 | 174 relative binding, GpH7-A5/GpH7-B3/GpL16-k0 = 100
22 | B4 | 80 relative binding, GpH7-A5/GpH7-B3/GpL16-k0 = 100
23 | B5 | 204 relative binding, GpH7-A5/GpH7-B3/GpL16-k0 = 100
24 | B6 | 221 relative binding, GpH7-A5/GpH7-B3/GpL16-k0 = 100
25 | B7 | 232 relative binding, GpH7-A5/GpH7-B3/GpL16-k0 = 100
26 | B8 | 18.1 relative binding, GpH7-A5/GpH7-B3/GpL16-k0 = 100
27 | B9 | 51.4 relative binding, GpH7-A5/GpH7-B3/GpL16-k0 = 100
28 | B10 | 70.4 relative binding, GpH7-A5/GpH7-B3/GpL16-k0 = 100
29 | B11 | 50.7 relative binding, GpH7-A5/GpH7-B3/GpL16-k0 = 100
30 | B12 | 218 relative binding, GpH7-A5/GpH7-B3/GpL16-k0 = 100
31 | B13 | 115 relative binding, GpH7-A5/GpH7-B3/GpL16-k0 = 100
32 | B14 | 73.2 relative binding, GpH7-A5/GpH7-B3/GpL16-k0 = 100
33 | B15 | 110 relative binding, GpH7-A5/GpH7-B3/GpL16-k0 = 100
34 | B16 | 123 relative binding, GpH7-A5/GpH7-B3/GpL16-k0 = 100
35 | B17 | 144 relative binding, GpH7-A5/GpH7-B3/GpL16-k0 = 100
36 | B18 | 108 relative binding, GpH7-A5/GpH7-B3/GpL16-k0 = 100

Biological target: T1, FcγRIIIa
Assay: as above

Row | Binder | He/Con_3a
37 | B1 | 4.5 relative binding, GpH7-A5/GpH7-B3/GpL16-k0 = 100
38 | B2 | 46.7 relative binding, GpH7-A5/GpH7-B3/GpL16-k0 = 100
39 | B3 | 30.5 relative binding, GpH7-A5/GpH7-B3/GpL16-k0 = 100
40 | B4 | 27.8 relative binding, GpH7-A5/GpH7-B3/GpL16-k0 = 100
41 | B5 | 75.5 relative binding, GpH7-A5/GpH7-B3/GpL16-k0 = 100
42 | B6 | 106 relative binding, GpH7-A5/GpH7-B3/GpL16-k0 = 100
43 | B7 | 105 relative binding, GpH7-A5/GpH7-B3/GpL16-k0 = 100
44 | B8 | 10.4 relative binding, GpH7-A5/GpH7-B3/GpL16-k0 = 100
45 | B9 | 12.2 relative binding, GpH7-A5/GpH7-B3/GpL16-k0 = 100
46 | B10 | 44.9 relative binding, GpH7-A5/GpH7-B3/GpL16-k0 = 100
47 | B11 | 28 relative binding, GpH7-A5/GpH7-B3/GpL16-k0 = 100
48 | B12 | 64.5 relative binding, GpH7-A5/GpH7-B3/GpL16-k0 = 100
49 | B13 | 30.7 relative binding, GpH7-A5/GpH7-B3/GpL16-k0 = 100
50 | B14 | 40.4 relative binding, GpH7-A5/GpH7-B3/GpL16-k0 = 100
51 | B15 | 55.8 relative binding, GpH7-A5/GpH7-B3/GpL16-k0 = 100
52 | B16 | 49.7 relative binding, GpH7-A5/GpH7-B3/GpL16-k0 = 100
53 | B17 | 76.2 relative binding, GpH7-A5/GpH7-B3/GpL16-k0 = 100
54 | B18 | 76.6 relative binding, GpH7-A5/GpH7-B3/GpL16-k0 = 100
